Measured values taken from paper PMC11190351 (Plant Direct, 2024).

Target: the molecule itself
Experiment: SEC

B1: Chlamydomonas reinhardtii alpha amylase 2 (AMA2), full-length recombinant enzyme (enzyme, UniProt A0A2K3DGK5 1-706, looked up)
chain: MDRSLLSRTSPRMQLGRPQQLPPPTVPLAQVPRLQRRCVVGSRVCQPVVAVRPGRASAGRGGRLVVSSVDMSNSPLSSMDAGEGLDIMFDNNSDAECTVVTVEGKDKAHLLMSLTGGFSSAGLTVISASITSDDGRVLDVFRVQTADGKKVPEEQFPSVREHILSVTATSSRSSMPAIYGIVAAAEVERLKPLRSQSTQNDVDALELAAAEMTQAVAELVATERDIIRMRASNADARTLQTKEANRTEAAAGLERKMAAMQAVLAARRNLATEPEKPKSPTEKLLETLKPPTPMRAAAGAGSGSGSEILLQAFNWESHRQKLYKQLMGRVKDISDAGFTGVWMPPPSDSVSPQGYLPRDLYSLDSAYGSEAELRELIAAFHQNNIKVIADIVVNHRCANSQGSDGKWNKFGGRLAWDASAICSNNPSFGGRGNPKQGDDYAAAPNIDHSQERIRNDIVQWMKYLRNSIGFDGWRFDFVRGYLGSYCKQYIDETVPAMAFGEYWDSCEYTDGVLNYNQDAHRQRTVNWCDSTGGTSAAFDFTTKGILQEAVGRREYWRLVDSQGRPPGVMGMWPSRAITFIDNHDTGSTLNHWPFPSRNLPEGYAYILTHPGTPCVFYDHFYQEENNLRKIILDLLKVRRRNGLNARSKVVMKKSAADVYAAMIDDKVAVKLGPGDWSPNQSGIKVNGKELKVAASGFQFAVWEGQH
stoichiometry N: 2
